Reference: patent US20130184211A1 (NEW YORK UNIVERSITY, published 2013)

B1: N-terminally hexahistidine-tagged 72-amino acid C-terminal tail of human FGF23 (S180 to I251), FGF23^180-251 (peptide)
peptide: SAEDDSERDPLNVLKPRARMTPAPASCSQELPSAEDNSPMASDPLGVVRGGRVNTHAGGTGPEGCRPFAKFI
notes: Expressed in E. coli; also called FGF23 C-terminal tail peptide; C-terminal tail of FGF23; not shown: N-terminal hexahistidine tag (six His)
B2: FGF23 C-terminal region peptide (S180 to S205), FGF23^180-205 (peptide)
peptide: SAEDDSERDPLNVLKPRARMTPAPAS
notes: Made by solid phase synthesis (GenScript)

Key:
[1] = biological target: T1, 1:1 binary complex of the ectodomains of FGFR1c and Klotho (human; murine, UniProt O35082 35-982); experiment: SPR competition dose-response: FGF23^180-251 mixed with a fixed concentration of FGFR1c-Klotho, immobilized FGF23^28-251 as competitor; averaged data of two to three experiments
T1 construct: range 35-982; also called FGFR1c-Klotho complex; binary FGFR1c-Klotho complex; not shown: C-terminal FLAG tag
T1 sequence 1: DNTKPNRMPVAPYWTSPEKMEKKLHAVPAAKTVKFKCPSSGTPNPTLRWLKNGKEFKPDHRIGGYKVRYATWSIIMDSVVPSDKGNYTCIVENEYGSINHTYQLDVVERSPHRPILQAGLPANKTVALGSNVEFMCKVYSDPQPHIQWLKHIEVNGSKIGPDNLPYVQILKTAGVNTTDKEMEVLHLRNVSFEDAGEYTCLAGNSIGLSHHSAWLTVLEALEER
T1 sequence 2: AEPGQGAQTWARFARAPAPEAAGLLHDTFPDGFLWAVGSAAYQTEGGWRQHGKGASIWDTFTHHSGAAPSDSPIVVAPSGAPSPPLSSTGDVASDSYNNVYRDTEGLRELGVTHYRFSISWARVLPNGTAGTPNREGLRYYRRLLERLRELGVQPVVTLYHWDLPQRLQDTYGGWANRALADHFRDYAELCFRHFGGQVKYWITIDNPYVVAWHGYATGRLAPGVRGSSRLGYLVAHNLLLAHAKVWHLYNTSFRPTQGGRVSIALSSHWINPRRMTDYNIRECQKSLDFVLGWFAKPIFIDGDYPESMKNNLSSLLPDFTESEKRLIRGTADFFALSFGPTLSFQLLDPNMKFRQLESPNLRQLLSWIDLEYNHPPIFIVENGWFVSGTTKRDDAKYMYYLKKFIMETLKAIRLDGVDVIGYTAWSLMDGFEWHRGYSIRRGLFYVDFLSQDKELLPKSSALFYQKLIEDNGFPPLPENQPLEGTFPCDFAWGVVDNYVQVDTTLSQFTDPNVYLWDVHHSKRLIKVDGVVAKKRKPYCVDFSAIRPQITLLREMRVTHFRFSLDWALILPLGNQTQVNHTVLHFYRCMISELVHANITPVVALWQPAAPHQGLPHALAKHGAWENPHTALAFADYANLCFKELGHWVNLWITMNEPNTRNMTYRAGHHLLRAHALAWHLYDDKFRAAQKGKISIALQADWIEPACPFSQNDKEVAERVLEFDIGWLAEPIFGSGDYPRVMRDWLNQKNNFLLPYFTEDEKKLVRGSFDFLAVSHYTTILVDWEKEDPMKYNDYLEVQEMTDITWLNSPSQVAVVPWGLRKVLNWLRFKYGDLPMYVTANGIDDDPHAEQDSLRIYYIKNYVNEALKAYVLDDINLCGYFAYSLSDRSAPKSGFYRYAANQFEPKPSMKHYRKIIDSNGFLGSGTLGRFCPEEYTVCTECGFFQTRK
Protocol: Increasing concentrations of FGF23²⁸⁻²⁵¹ (0-50 nM) were mixed with a fixed concentration of 1:1 complex of the ectodomains of FGFR1c and Klotho (15 nM and 20 nM, respectively) in HBS-EP buffer, and the mixtures were passed over the FGF23 chip. In the other—reverse—assay, FGF23¹⁸⁰⁻²⁵¹ was immobilized on a chip (˜48.4 fmole/mm² of flow channel). Increasing concentrations of FGF23²⁸⁻²⁵¹ (0-50 nM) were mixed with a fixed concentration of 1:1 complex of the ectodomains of FGFR1c and Klotho (20 nM) in HBS-EP buffer, and the mixtures were passed over the chip. As a control, competition of FGF23 C-terminal tail peptide in solution with immobilized FGF23 C-terminal tail peptide for binding to the binary FGFR1c-Klotho complex was studied. Increasing concentrations of FGF23¹⁸⁰⁻²⁵¹ (0-400 nM) were mixed with a fixed concentration of 1:1 complex of the ectodomains of FGFR1c and Klotho (20 nM) in HBS-EP buffer, and the mixtures were passed over the FGF23¹⁸⁰⁻²⁵¹ chip.
To fully nail down that the C-terminal tail of FGF23 mediates FGF23 binding to the binary FGFR1c-Klotho complex, a fixed concentration of FGFR1c-Klotho was mixed with increasing concentrations of FGF23¹⁸⁰⁻²⁵¹, and the mixtures were passed over the FGF23 chip. Mixtures of FGF23²⁸⁻²⁵¹ with FGFR1c-Klotho were used as a control. […]

[2] = biological target: T2, complex of V5-tagged FGFR3c and FLAG-tagged membrane-spanning murine Klotho isolated from transfected … (murine, UniProt O35082 35-1014); experiment: co-immunoprecipitation competition; competitor FGF23^28-251
T2 construct: Isolated from cell lysate on anti-V5 agarose beads; also called FGFR3c-Klotho complex; binary FGFR-Klotho complex; not shown: FGFR3c, V5-tagged, expressed from a vector in HEK293-Klotho cells
From the text: (§1) Co-immunoprecipitation may also be used to determine that an agent specifically binds the binary FGFR-Klotho complex. One aspect of the present invention utilizes co-immunoprecipitation studies. Subconfluent cultures of a HEK293 cell line ectopically expressing the FLAG-tagged membrane-spanning form of murine Klotho were transfected with expression vectors for V5-tagged FGFR1c, FGFR3c, or FGFR4. Two days later, the cells were lysed, and FGFR-Klotho complexes were isolated from cell lysate using anti-V5 agarose beads. The beads were then incubated with either FGF23¹⁸⁰⁻²⁵¹ or FGF23²⁸⁻²⁵¹ alone, or with mixtures of FGF23²⁸⁻²⁵¹ with either increasing FGF23¹⁸⁰⁻²⁵¹ or increasing FGF23¹⁸⁰⁻²⁰⁵. Bead-bound proteins were resolved on SDS-polyacrylamide gels, transferred to nitrocellulose membranes, and labeled using antibodies to Klotho, FGF23, and V5 epitope tag.

[3] = biological target: T3, complex of V5-tagged FGFR4 and FLAG-tagged membrane-spanning murine Klotho isolated from transfected … (murine, UniProt O35082 35-1014); experiment: as above
T3 construct: Isolated from cell lysate on anti-V5 agarose beads; also called FGFR4-Klotho complex; binary FGFR-Klotho complex; not shown: FGFR4, V5-tagged, expressed from a vector in HEK293-Klotho cells
From the text: as §1

[4] = biological target: T4, complex of V5-tagged FGFR1c and FLAG-tagged membrane-spanning murine Klotho isolated from transfected … (murine, UniProt O35082 35-1014); experiment: as above
T4 construct: Isolated from cell lysate on anti-V5 agarose beads; also called FGFR1c-Klotho complex (co-immunoprecipitated); binary FGFR-Klotho complex; not shown: FGFR1c, V5-tagged, expressed from a vector in HEK293-Klotho cells
From the text: as §1

T2 sequence (O35082 35-1014, one chain of several): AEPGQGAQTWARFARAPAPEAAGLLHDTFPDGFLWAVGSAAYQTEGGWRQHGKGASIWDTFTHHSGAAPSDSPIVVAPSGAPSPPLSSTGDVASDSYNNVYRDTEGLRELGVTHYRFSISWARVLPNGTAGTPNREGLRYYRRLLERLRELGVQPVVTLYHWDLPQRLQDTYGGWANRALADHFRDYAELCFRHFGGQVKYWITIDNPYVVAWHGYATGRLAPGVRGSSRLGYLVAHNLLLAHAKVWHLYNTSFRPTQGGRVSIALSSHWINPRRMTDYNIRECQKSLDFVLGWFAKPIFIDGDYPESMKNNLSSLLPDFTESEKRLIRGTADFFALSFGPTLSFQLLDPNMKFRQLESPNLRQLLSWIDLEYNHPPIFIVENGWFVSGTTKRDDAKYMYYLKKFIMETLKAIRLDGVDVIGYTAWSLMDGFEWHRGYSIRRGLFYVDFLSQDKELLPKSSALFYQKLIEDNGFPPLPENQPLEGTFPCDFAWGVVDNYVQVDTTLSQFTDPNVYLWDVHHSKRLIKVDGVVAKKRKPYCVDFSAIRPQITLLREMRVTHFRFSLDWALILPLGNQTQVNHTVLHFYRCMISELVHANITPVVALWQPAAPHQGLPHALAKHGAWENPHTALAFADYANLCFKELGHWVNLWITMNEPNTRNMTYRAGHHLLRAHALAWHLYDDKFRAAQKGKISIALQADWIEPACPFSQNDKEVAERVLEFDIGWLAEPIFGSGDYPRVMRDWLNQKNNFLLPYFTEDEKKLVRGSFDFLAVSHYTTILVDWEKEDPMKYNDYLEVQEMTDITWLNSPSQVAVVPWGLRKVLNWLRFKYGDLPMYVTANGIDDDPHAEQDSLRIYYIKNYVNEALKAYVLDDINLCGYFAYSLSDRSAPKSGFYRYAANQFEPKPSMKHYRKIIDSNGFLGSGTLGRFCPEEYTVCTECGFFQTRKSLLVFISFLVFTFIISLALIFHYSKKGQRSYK
T3 sequence (O35082 35-1014, one chain of several): as above
T4 sequence (O35082 35-1014, one chain of several): as above

Binder | IC50 (read off the curve) [1] [nM] | fold reduced potency compared to the FGF23^180-251 peptide [2] [fold] | fold reduced potency compared to the FGF23^180-251 peptide [3] [fold] | fold reduced potency compared to the FGF23^180-251 peptide [4] [fold]
B1 | ~50 | – | – | –
B2 | – | > 100 | > 100 | 100
